Legend:
[1] = target: La ribonucleoprotein domain family, member 1 (human) (UniProt Q6PKG0); assay: protein microarray; details: 3'-biotin; Microarray: 20 mM Tris pH 7.5, 5 mM MgCl2, 100 mM KCl, 0.1% Tween-20, A/T-rich ON blocker mix; EMSA: 20 mM Tris-HCl pH 8, 100 mM KCl, 200 nM ON, 0-200 nM BRD3 …
[2] = target: T1, small trans-membrane and glycosylated protein (human) (UniProt O95332); assay: protein microarray; details: 3'-biotin; Microarray: 20 mM Tris pH 7.5, 5 mM MgCl2, 100 mM KCl, 0.1% Tween-20, A/T-rich ON blocker mix; EMSA: 20 mM Tris-HCl pH 8, 100 mM KCl, 200 nM ON, 0-200 nM BRD3 …
T1 sequence: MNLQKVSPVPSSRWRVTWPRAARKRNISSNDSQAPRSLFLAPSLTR

Row | Sequence | binding signal [1] | binding signal [2]
1 | GGGGACAGGGGTATGGGGAGGGG [G4-3 biotinylated (CtG)] | 4.71 Z-score | 4.59 Z-score
2 | GGGAGGCTGAGGCAGG [G4-1 biotinylated (PQS2)] | 4.49 Z-score | 3.31 Z-score
3 | GGTGACAGGGGTATGGGGAGGGG [G4-2 biotinylated (Ct1)] | 5.37 Z-score | 5.81 Z-score
